For 142 substances, amyloid nucleation score results are on record in the supplement of paper PMC12042874.

± gives the uncertainty stated by the source.

This data set is described as follows: amyloid nucleation score (Sup35N fusion, yeast selection) (log enrichment); library NNK1; higher = more nucleation; inactive = no reads after selection. The method, boiled down:
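The nucleation score is the DiMSum log enrichment of output over input reads, centred on the mode score of non-aggregating sequences. Only sequences with 100 or more input reads were scored, using Illumina sequencing of input and output plasmid inserts. Psi-negative yeast expressing Sup35N fused to peptides of 20 random codons were induced 24 hours with 100 μM copper sulfate and grown 7 days at 30°C on medium lacking adenine and uracil.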
DTVSMLHQLVCW yielded an amyloid nucleation score of 7.245 ± 0.053.

CNTPSTCNCVIVRPSYPSQY registered an amyloid nucleation score of -0.088 ± 0.61.

On to CLSRKSWFWHGRWESVSCHP, for which the amyloid nucleation score is -0.018 ± 0.53.

TILGVITKIVQTLLWMPWVA had an amyloid nucleation score of -1.37 ± 0.9.

RLFWLRNLPLWASYK showed an amyloid nucleation score of 0.07 ± 0.47.

As for LAISL, the amyloid nucleation score was -0.444 ± 0.36.

MHSPRGLE displayed an amyloid nucleation score of 1.07 ± 0.79.

The substance KLMVHRNDRNPMY yielded an amyloid nucleation score of -0.318 ± 0.63.

For WFDELGRDFLV, the amyloid nucleation score was -0.193 ± 1.6.

As for GFYRGVTTIFCSVFI, the amyloid nucleation score was 7.777 ± 0.07.

Turning to SVARCASPMQSLSLRGRPEG, the amyloid nucleation score result is “inactive”.

Turning to MLVYYNDKSVFHRFVLLRN, the amyloid nucleation score is 0.644 ± 0.85.

With IWYSVWNSNGFSHSRHGQQR, the amyloid nucleation score result was “inactive”.

Substance SNNHQFFCDTFDIGWWEVGR registered an amyloid nucleation score of -1.63 ± 2.4.

Turning to HNFWLCAVSYQDRVMFLSVF, the amyloid nucleation score was 0.497 ± 0.31.

SCKRSA returned an amyloid nucleation score of 0.578 ± 0.4.

In turn, SKTSKWYPTDKLNTGALFLK showed an amyloid nucleation score of -0.321 ± 0.34.

The substance RIHRVHRKF gave an amyloid nucleation score of -0.33 ± 0.38.

Consider SLNGMTYVSMIVRSD, for which the amyloid nucleation score was 1.41 ± 0.39.

Substance RLGCGSM displayed an amyloid nucleation score of 0.769 ± 0.45.

In turn, SYYYHV returned an amyloid nucleation score of 1.17 ± 0.66.

As for FVSNGSYVGIS, the amyloid nucleation score was -0.42 ± 0.51.

Substance SCSVSNGVFCNHGRGCGFRL showed an amyloid nucleation score of 2.12 ± 0.18.

SHKGNPCRKIC yielded an amyloid nucleation score of -0.392 ± 0.38.

Consider NRRSSKLIN, for which the amyloid nucleation score entry is “inactive”.

As to VRADFALTWLLGVCRVWCCR, the amyloid nucleation score was 0.247 ± 0.36.

In the case of CYGFCNCQYSESSKLLFDAL, the amyloid nucleation score was -1.11 ± 0.34.

FSMSILENRYTTFELSGAYQ came in with an amyloid nucleation score of -0.722 ± 0.66.

In turn, WPTIPAVQCRRVVCSRDTWA returned an amyloid nucleation score of -0.185 ± 0.31.

On to CSYPHIDIAPRSACPTWTQD, for which the amyloid nucleation score is 0.432 ± 0.72.

In turn, RLNLSLSVR showed an amyloid nucleation score of 0.517 ± 0.55.

For IEQMCTHVNYFGD, the amyloid nucleation score is -0.548 ± 0.86.

For APLALSGRVCFWSWFCPLFV, the amyloid nucleation score was determined as 5.76 ± 0.084.

LNRFLYDSCLFSCYFGYMVA showed an amyloid nucleation score of -0.017 ± 0.25.

Substance LAKGGPL had an amyloid nucleation score of -0.813 ± 0.54.

Turning to YYQRGVDYNIVFLRT, the amyloid nucleation score was found to be 1.16 ± 0.52.

Take WDKADVFLDDVSASRSSLKM: the amyloid nucleation score was 3.31 ± 0.088.

The substance PWKWF yielded an amyloid nucleation score of -0.224 ± 0.43.

TGKAVTSGWKNIVSSITSQR: the amyloid nucleation score is -0.434 ± 0.58.

For RYSSLRWTISFDNLVVSFRP, the amyloid nucleation score is 0.724 ± 0.68.

With IDHSNTIFMSQCRRLSVPE, the amyloid nucleation score is -0.889 ± 1.7.

In turn, DCCKLTDQQWDVIHAGIWGG registered an amyloid nucleation score of 1.55 ± 0.69.

VTRLLTLPWHCRRIYLVNLY: the amyloid nucleation score is -0.09 ± 0.97.

In turn, YTGKRKT showed an amyloid nucleation score of -0.5 ± 0.46.

As to NFKVYPSGCKEECAYVLLSL, the amyloid nucleation score is 3.87 ± 0.079.

RSHHIWGY registered an amyloid nucleation score of 0.353 ± 0.48.

As to TPNQSRFPNAVMTDTVTSFS, the amyloid nucleation score is 0.214 ± 0.81.

Regarding GVGGLWVEDSWRQRLDSEWA, the amyloid nucleation score is -0.014 ± 0.48.

As to KFNIVILLINCAPAFSEMYL, the amyloid nucleation score is 5.475 ± 0.05.

For the substance QSWHEWDM, the amyloid nucleation score result is “inactive”.

In the case of GLEGIRIGWSSLVSMCLWRG, the amyloid nucleation score is -0.016 ± 0.33.

The substance DNSLFLYQRAR showed an amyloid nucleation score of -0.449 ± 0.82.

As for LWFDYFPF, the amyloid nucleation score was -0.096 ± 0.43.

Turning to FGGWVSLRSQKCMRPWRLGG, the amyloid nucleation score is -1.22 ± 1.4.

Consider GFELEAIKEYFGCWPSHYRF, for which the amyloid nucleation score result was “inactive”.

CTDPFQDLTRELLLLVCIGL: the amyloid nucleation score is -0.201 ± 0.65.

Take NFRWILSSAMDAIFPYVAFV: the amyloid nucleation score stood at 1.52 ± 0.78.

SFSNVRNI came in with an amyloid nucleation score of -1.52 ± 0.81.

With WICVGYIVTTCSPELGEYRQ, the amyloid nucleation score entry is “inactive”.

Regarding WHLWIVTTVTHMGSNNFLG, the amyloid nucleation score entry is “inactive”.

In turn, KSMKGRSLRLRLKRDPRKVA displayed an amyloid nucleation score of -0.051 ± 0.4.

Substance LTTYFHFMSMTEWAWRRRSK came in with an amyloid nucleation score of 0.538 ± 0.29.

Regarding IFYSLFEDTYGGYVLNTAYL, the amyloid nucleation score result is “inactive”.

CASWTCAEKAEHTMYMEDYP gave an amyloid nucleation score of 0.02 ± 0.36.

As to IMPDNDWKSCILIFSRSILF, the amyloid nucleation score worked out at 2.59 ± 0.15.

Consider RGSTLSGVYCAENRASGFDS, for which the amyloid nucleation score was 0.93 ± 0.33.

MSVNSRNMNKYLFWNKL had an amyloid nucleation score of -0.029 ± 0.3.

Substance MGHVLGVYKSP registered an amyloid nucleation score of 1.2 ± 0.46.

STRYRPLNWYLTKPPVRFKM came in with an amyloid nucleation score of -0.037 ± 0.56.

In turn, YIDVGICYGGDERVLFLV came in with an amyloid nucleation score of 1.2 ± 0.61.

YMGMLA came in with an amyloid nucleation score of 2.34 ± 0.12.

For DSWIQHGGCEFVLIVRRHFI, the amyloid nucleation score was determined as 0.714 ± 0.97.

Consider GAKICIYELVLHEMRACVAR, for which the amyloid nucleation score was -0.282 ± 0.96.

In turn, LSMPMGNLEPL came in with an amyloid nucleation score of -0.277 ± 0.19.

On to TRCIAVFIGD, for which the amyloid nucleation score was 2.52 ± 0.11.

IVLTHYGSVLFHSYKGYFMW returned an amyloid nucleation score of -0.197 ± 0.29.

NLTGGCLGVRWDMVECAWYY had an amyloid nucleation score of 3.77 ± 0.068.

Consider RHADIWSDFPR, for which the amyloid nucleation score was 1.53 ± 0.7.

The substance YWVWYDVYGSWLGSWYYKRG displayed an amyloid nucleation score of 0.278 ± 0.52.

In turn, SLLCLCYV had an amyloid nucleation score of 7.599 ± 0.059.

Consider NSNMGCSVI, for which the amyloid nucleation score is -0.596 ± 1.

In turn, DADDLSIGAVNRTC returned an amyloid nucleation score of -0.066 ± 0.5.

Consider YIKWSMIRFT, for which the amyloid nucleation score was -0.66 ± 0.46.

In turn, LRISSFDMDNSVWFSRVYNY displayed an amyloid nucleation score of 0.844 ± 0.26.

Substance VPNEYGNSEVRLLDLLGDLE came in with an amyloid nucleation score of -0.435 ± 0.36.

As for IHWFVFYFLKKFCYYRSYAR, the amyloid nucleation score is 0.389 ± 0.4.

Consider CGRVDEFKALLYKILRDYNW, for which the amyloid nucleation score was -0.141 ± 0.23.

As to KRWTKNFDCFQTVMHIYCSQ, the amyloid nucleation score result is “inactive”.

Substance YTRFN displayed an amyloid nucleation score of -1.66 ± 1.6.

Take DRCSY: the amyloid nucleation score is -0.431 ± 0.39.

Regarding TGPVLTPKSCYFGHINSSCF, the amyloid nucleation score was -0.009 ± 0.29.

The substance CWVYFSNSSVILRR returned an amyloid nucleation score of 0.074 ± 0.84.

Consider SNGRFWYMADSVST, for which the amyloid nucleation score entry is “inactive”.

In the case of GMLRVYWSMSSVFSGMCDRC, the amyloid nucleation score was determined as 3.94 ± 0.1.

Substance RSSSDKPSKTTTWRMLAGTG had an amyloid nucleation score of -0.113 ± 0.7.

In turn, FLSSCSMFMGRPWFSCYRVR registered an amyloid nucleation score of -1.02 ± 2.4.

The substance YQDVIPNPVHRYTV came in with an amyloid nucleation score of 0.371 ± 0.31.

The substance VALAIIRPY returned an amyloid nucleation score of -0.431 ± 0.27.

With SIVGLNQ, the amyloid nucleation score turned out to be 0.742 ± 0.43.

For the substance KTCFHNNLPKIGLPHHLHNG, the amyloid nucleation score was -1.32 ± 1.9.

On to WCSLRSDW, for which the amyloid nucleation score entry was “inactive”.

YFTERL registered an amyloid nucleation score of 0.122 ± 0.44.

As for ITKGAPSLYYMCRRGEDACS, the amyloid nucleation score was found to be 0.523 ± 0.44.

LRCRQKKYAAYRGTAVYWLL yielded an amyloid nucleation score of -0.236 ± 0.76.

Substance VIGSCRTCMS had an amyloid nucleation score of 0.135 ± 0.3.

Substance VLKCHSGSCRIYTNDSYVAL registered an amyloid nucleation score of 0.387 ± 0.17.

In turn, NEHAENDVTFQGNEDICVVM displayed an amyloid nucleation score of -0.419 ± 0.34.

Substance DYRADFNNFVFEERSSYISV displayed an amyloid nucleation score of -0.236 ± 0.49.

On to IPNGNVSSSLSVGIMPVAFR, for which the amyloid nucleation score came out at 4.36 ± 0.092.

On to ELAAMCSWAYSN, for which the amyloid nucleation score amounted to 0.097 ± 0.41.

For SYMSLAFIS, the amyloid nucleation score came to 0.004 ± 0.69.

Consider ANRHRNRRSSSRDVFMFVIC, for which the amyloid nucleation score was determined as 3.02 ± 0.19.

Regarding SAGVTPLEMKSDRIREDAAG, the amyloid nucleation score came to 0.629 ± 1.

In the case of EFERVRYLYCGRPVPSHILL, the amyloid nucleation score came to 0.005 ± 0.89.

For the substance VNSTMVPRVLME, the amyloid nucleation score was 0.935 ± 0.69.

As for RFRVEGPMYFICICKRLFTY, the amyloid nucleation score was -0.555 ± 0.44.

In the case of VLSEVDWLSIFHGWMFGVRC, the amyloid nucleation score came out at 0.434 ± 1.4.

The substance IPVILSSSNYSDSKPGL returned an amyloid nucleation score of 0.964 ± 0.6.

For FGMKMGMMRVV, the amyloid nucleation score is -0.688 ± 1.2.

The substance CFYFMECLV showed an amyloid nucleation score of -0.254 ± 0.59.

In turn, CEAFADTSSSYRDFYLQHQL returned an amyloid nucleation score of -1.44 ± 1.2.

On to NEGEVIAELIIFVNPWVTI, for which the amyloid nucleation score was -0.599 ± 0.43.

ICNFERILRNMVFAWWYKID: the amyloid nucleation score came to 0.621 ± 0.42.

NVRALILIKNCSPQMLRNEF gave an amyloid nucleation score of 5.07 ± 0.06.

With NSDKLPRCHLSLSYV, the amyloid nucleation score was 0.994 ± 0.28.

SRWGPRL showed an amyloid nucleation score of -0.494 ± 0.71.

Turning to DHIEMFGKVGYYHNMILW, the amyloid nucleation score amounted to 0.762 ± 0.37.

ESPHYFTLTCV displayed an amyloid nucleation score of -0.036 ± 0.74.

The substance YWSFGGWVAQRVCMESVFVK yielded an amyloid nucleation score of -2.27 ± 1.6.

Substance AVSLFAGDQFDDTTRSAQGI yielded an amyloid nucleation score of -0.306 ± 0.74.

For the substance TVFYMRPVGSGTGNLNLLQL, the amyloid nucleation score came out at 0.906 ± 1.

The substance SPFLSAFLSFLTSFYLIFMG had an amyloid nucleation score of -0.164 ± 0.61.

As for MCPTLVLSA, the amyloid nucleation score entry is “inactive”.

For the substance WVRNSLCRQIRRSANHQSGA, the amyloid nucleation score entry is “inactive”.

Take RLSLTINFGNKFRCITGQFD: the amyloid nucleation score came to 4.01 ± 0.091.

As for SRFMGTNN, the amyloid nucleation score stood at 0.102 ± 0.84.

For VSTCAAR, the amyloid nucleation score is -0.383 ± 0.95.

SSLRPRKCCWRKTRRLSKGG: the amyloid nucleation score was 0.441 ± 0.67.

Consider LGFAA, for which the amyloid nucleation score is -0.339 ± 1.3.

RGILNRVTLILDLRVHSSSD returned an amyloid nucleation score of 0.504 ± 0.32.

In turn, IYEKRGD gave an amyloid nucleation score of 1.15 ± 0.98.

CNNSSGRVVRLCSMDGGLLG had an amyloid nucleation score of -0.021 ± 0.65.
